Read-outs that look alike come from different tables or passages of the source.

The source of these data is PMC3066073.

Data set [1] has as its target T1, RUNX1 (recombinant) (UniProt Q01196 1-453). The experiment in a line: EMSA, supershift. On the technique in general: In EMSA bound probe runs differently from free probe, usually more slowly.
For data set [2], the target named is T1, RUNX1 (recombinant). The experiment in a line: EMSA, supershift. The source holds these as a separate data set.

T1 sequence (Q01196 whole entry): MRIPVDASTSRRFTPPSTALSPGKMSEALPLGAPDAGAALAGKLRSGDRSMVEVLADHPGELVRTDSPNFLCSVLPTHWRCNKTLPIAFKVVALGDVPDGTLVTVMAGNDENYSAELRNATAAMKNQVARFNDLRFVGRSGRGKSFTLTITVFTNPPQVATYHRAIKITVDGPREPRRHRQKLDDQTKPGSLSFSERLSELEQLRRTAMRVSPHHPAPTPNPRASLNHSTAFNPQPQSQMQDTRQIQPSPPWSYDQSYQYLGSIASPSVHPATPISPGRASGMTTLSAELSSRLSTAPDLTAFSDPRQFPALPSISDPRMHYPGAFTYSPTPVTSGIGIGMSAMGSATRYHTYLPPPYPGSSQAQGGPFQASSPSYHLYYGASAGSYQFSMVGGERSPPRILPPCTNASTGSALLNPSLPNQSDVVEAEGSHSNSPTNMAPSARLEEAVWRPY

B1: PKC-theta Wt probe I (dsDNA)
DNA 1: CAAATGCCTGGGGTAGGTCA
DNA 2: TGACCTACCCCAGGCATTTG
B1: in data set [1], the binding result is on record as “binds”.

B2: PKC-theta Wt probe III (dsDNA)
DNA 1: ATGAGCCACCGCACCTGGCC
DNA 2: GGCCAGGTGCGGTGGCTCAT
In the case of B2, the binding result in data set [2] is recorded as “binds”.
